Reference: patent publication US20150166647A1 (VLST, published 2015)

T1: human RANTES/CCL5 (human, UniProt P13501 24-91)
T1 construct: also called Biotin-RANTES
T1 sequence: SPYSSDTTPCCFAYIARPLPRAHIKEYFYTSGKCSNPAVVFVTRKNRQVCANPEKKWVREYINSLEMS

T2: human MIP-1β/CCL4 (human, UniProt Q8NHW4 24-92)
T2 construct: also called Biotin-MIP-1β
T2 chain: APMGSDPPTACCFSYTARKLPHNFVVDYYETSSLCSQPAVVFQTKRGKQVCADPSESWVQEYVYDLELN

T3: MCP-2
T3 construct: also called MCP-2/CCL8; CCL8
T3 chemokine: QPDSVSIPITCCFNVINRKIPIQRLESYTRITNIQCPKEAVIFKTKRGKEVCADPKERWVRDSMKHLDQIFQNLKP

T4: ELC
T4 construct: also called ELC/MIP-3β/CCL19; CCL19
T4 chemokine: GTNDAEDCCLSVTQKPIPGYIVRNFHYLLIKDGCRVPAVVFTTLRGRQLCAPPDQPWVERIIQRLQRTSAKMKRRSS

T5: human HCC-2/MIP-1δ/CCL15 (human, UniProt Q16663 46-113)
T5 sequence: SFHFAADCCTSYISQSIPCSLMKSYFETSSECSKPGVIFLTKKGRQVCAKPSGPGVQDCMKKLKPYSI

T6: human HCC-1/CCL14/CCL14a (human, UniProt Q16627 28-93)
T6 sequence: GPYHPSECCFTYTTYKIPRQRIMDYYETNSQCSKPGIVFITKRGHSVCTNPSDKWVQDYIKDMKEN

T7: human PARC/CCL18 (human, UniProt P55774 21-89)
T7 sequence: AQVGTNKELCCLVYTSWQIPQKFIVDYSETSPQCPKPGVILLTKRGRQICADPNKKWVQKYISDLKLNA

T8: HCC-4
T8 construct: also called HCC-4/CCL16; CCL16
T8 chemokine: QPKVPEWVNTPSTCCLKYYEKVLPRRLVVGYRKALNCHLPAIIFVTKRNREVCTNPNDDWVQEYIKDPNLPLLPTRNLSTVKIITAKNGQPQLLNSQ

T9: Eotaxin-2
T9 construct: also called Eotaxin-2/CCL24; CCL24
T9 chemokine: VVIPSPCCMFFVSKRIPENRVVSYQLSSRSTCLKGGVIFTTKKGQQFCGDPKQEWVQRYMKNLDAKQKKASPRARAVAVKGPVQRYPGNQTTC

T10: MDC
T10 construct: also called MDC/CCL22; CCL22
T10 chemokine: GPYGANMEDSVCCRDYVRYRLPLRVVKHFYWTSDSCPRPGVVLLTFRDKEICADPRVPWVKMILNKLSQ

T11: I-309
T11 construct: also called I-309/CCL1; CCL1
T11 chemokine: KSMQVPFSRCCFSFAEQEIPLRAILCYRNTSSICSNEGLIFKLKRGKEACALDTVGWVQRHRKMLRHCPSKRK

T12: human MPIF-1/CCL23 (human, UniProt P55773 46-120)
T12 sequence: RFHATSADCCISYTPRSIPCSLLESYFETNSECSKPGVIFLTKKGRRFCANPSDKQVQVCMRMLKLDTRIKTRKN


Key:
human RANTES/CCL5 = molecular target: T1, human RANTES/CCL5; test: ELISA, hybridoma fusion-well supernatant on biotinylated chemokine on streptavidin plate; background approx. 0.150
human MCP-1/CCL2 [1] = molecular target: T13, human MCP-1/CCL2 (human, UniProt P13500 24-99); test: as above
T13 construct: also called Biotin-MCP1

human MIP-1β/CCL4 = molecular target: T2, human MIP-1β/CCL4; test: as above
MCP-2 = molecular target: T3, MCP-2; test: MSD electrochemiluminescence assay; chemokine coated at 1 µg/mL, 7D12A at 3 µg/mL; background = BSA
ELC = molecular target: T4, ELC; test: MSD electrochemiluminescence assay; chemokine coated at 1 µg/mL, 18V4F at 3 µg/mL; background = BSA
human HCC-2/MIP-1δ/CCL15 = molecular target: T5, human HCC-2/MIP-1δ/CCL15; test: as above
human HCC-1/CCL14/CCL14a = molecular target: T6, human HCC-1/CCL14/CCL14a; test: as above
Eotaxin = molecular target: T14, Eotaxin; test: as above
T14 construct: also called Eotaxin/CCL11; CCL11

MCP-4 = molecular target: T15, MCP-4; test: as above
T15 construct: also called MCP-4/CCL13; CCL13

human PARC/CCL18 = molecular target: T7, human PARC/CCL18; test: as above
MCP-3 = molecular target: T16, MCP-3; test: as above
T16 construct: also called MCP-3/CCL7; CCL7

human MCP-1/CCL2 [2] = molecular target: T13, human MCP-1/CCL2; test: as above
MIP3-α = molecular target: T17, MIP3-α; test: as above
T17 construct: also called LARC/MIP-3α/CCL20; CCL20

HCC-4 = molecular target: T8, HCC-4; test: as above
Eotaxin-2 = molecular target: T9, Eotaxin-2; test: as above
MDC = molecular target: T10, MDC; test: as above
I-309 = molecular target: T11, I-309; test: as above
human MPIF-1/CCL23 = molecular target: T12, human MPIF-1/CCL23; test: as above

T13 sequence (P13500 24-99 limits assumed): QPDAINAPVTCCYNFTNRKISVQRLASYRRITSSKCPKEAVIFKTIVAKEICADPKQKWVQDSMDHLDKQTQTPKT
T17 sequence (chemokine, as listed by the source): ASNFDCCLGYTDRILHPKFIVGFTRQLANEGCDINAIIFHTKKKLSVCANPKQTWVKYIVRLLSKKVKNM
T14 sequence (chemokine, as listed by the source): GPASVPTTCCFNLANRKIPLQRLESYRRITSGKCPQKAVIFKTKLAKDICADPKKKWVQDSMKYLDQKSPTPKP
T15 sequence (chemokine, as listed by the source): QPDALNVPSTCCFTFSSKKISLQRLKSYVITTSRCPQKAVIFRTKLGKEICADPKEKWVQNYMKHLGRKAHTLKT
T16 sequence (chemokine, as listed by the source): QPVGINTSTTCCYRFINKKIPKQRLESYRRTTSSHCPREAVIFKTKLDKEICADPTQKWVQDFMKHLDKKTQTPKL

| ELISA signal (human RANTES/CCL5) | ELISA signal (human MCP-1/CCL2 [1]) | ELISA signal (human MIP-1β/CCL4) | binding result (MCP-2) | binding result (ELC) | binding result (human HCC-2/MIP-1δ/CCL15) | binding result (human HCC-1/CCL14/CCL14a) | binding result (Eotaxin) | binding result (MCP-4) | binding result (human PARC/CCL18) | binding result (MCP-3) | binding result (human MCP-1/CCL2 [2]) | binding result (MIP3-α) | binding result (HCC-4) | binding result (Eotaxin-2) | binding result (MDC) | binding result (I-309) | binding result (human MPIF-1/CCL23) | Binder |
| --- | --- | --- | --- | --- | --- | --- | --- | --- | --- | --- | --- | --- | --- | --- | --- | --- | --- | --- |
| 0.178 | 0.246 | 2.68 | no binding (tested: 3 µg/mL) |  |  |  |  |  |  |  |  |  |  |  |  |  |  | monoclonal antibody 7D12A (antibody, V domains shown, also called MAb 7D12A) VH: EVHLQESGPSLVKPSQTLSLTCSVTGDSITNGYWNWIRKFPGNKLDYMGYISYDGNTYYNPSLKSRFSITRDTSKNQYYLQLNSVTTEDTATYYCSRGDYGTYVMDYWGQGTSVTVSS VL: NIVLTQSPVSLAVSLGQRATISCRASESVDSHGNSFMHWYQQKPGQPPKLLIYLASNLESGVPARFTGGGSGSDFTLTIDPVEADDVGTYYCQQNNEDPYTFGGGTKLEIK |
|  |  |  |  | no binding (tested: 3 µg/mL) | no binding (tested: 3 µg/mL) | no binding (tested: 3 µg/mL) | no binding (tested: 3 µg/mL) | no binding (tested: 3 µg/mL) | no binding (tested: 3 µg/mL) | no binding (tested: 3 µg/mL) | no binding (tested: 3 µg/mL) | no binding (tested: 3 µg/mL) | no binding (tested: 3 µg/mL) | no binding (tested: 3 µg/mL) | no binding (tested: 3 µg/mL) | no binding (tested: 3 µg/mL) | no binding (tested: 3 µg/mL) | monoclonal antibody 18V4F (antibody, V domains shown, also called MAb 18V4F) VH: QVQLKESGPGLVAPSQSLSITCTVSGFSLTGYGIHWVRQPPGKGLEWLGVIWPGGGTNYNSALMSRLSISKDNSKSQVFLKMNSLQTDDTAMYYCARGPLITTEVSMDYWGQGTSVTVSS VL: QAVVTQESALTTSPGETVTLTCRSNTGAVTTSNYANWVQEKPDHLFTGLIGGTNNRAPGVPARFSGSLIGDKAALTITGAQTEDEAIYFCALWYSNHWVFGGGTKLTVLG |
